The target of this assay is T1, RipC (Rv2190c) of Mycobacterium tuberculosis, construct RipCΔ33 (Mycobacterium tuberculosis, UniProt P9WHU3 34-385).
T1 construct: also called MtbRipC; RipC∆33
T1 sequence: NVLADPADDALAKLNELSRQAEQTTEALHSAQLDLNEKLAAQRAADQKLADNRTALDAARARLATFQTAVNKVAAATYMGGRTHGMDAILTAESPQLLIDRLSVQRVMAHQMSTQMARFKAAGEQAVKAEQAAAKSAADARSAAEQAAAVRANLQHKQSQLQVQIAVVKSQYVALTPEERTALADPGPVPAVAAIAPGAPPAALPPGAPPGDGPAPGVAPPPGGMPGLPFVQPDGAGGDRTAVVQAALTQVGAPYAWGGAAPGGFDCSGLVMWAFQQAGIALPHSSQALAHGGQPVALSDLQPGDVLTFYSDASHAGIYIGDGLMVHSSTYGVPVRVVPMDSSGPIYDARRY
Put plainly: cryo-EM structure; FtsEX or FtsEX-RipC in peptidiscs, 3 mg/ml, ATP-free. To be noted: both partners purified.

B1: FtsX (Rv3101c) of Mycobacterium tuberculosis (natural protein)
chain: MRFGFLLNEVLTGFRRNVTMTIAMILTTAISVGLFGGGMLVVRLADSSRAIYLDRVESQVFLTEDVSANDSSCDTTACKALREKIETRSDVKAVRFLNRQQAYDDAIRKFPQFKDVAGKDSFPASFIVKLENPEQHKDFDTAMKGQPGVLDVLNQKELIDRLFAVLDGLSNAAFAVALVQAIGAILLIANMVQVAAYTRRTEIGIMRLVGASRWYTQLPFLVEAMLAATMGVGIAVAGLMVVRALFLENALNQFYQANLIAKVDYADILFITPWLLLLGVAMSGLTAYLTLRLYVRR
notes: also called MtbFtsX
In the case of B1, the binding result was “binds”.
